# Measurements from patent publication US6020166, “Nucleic acid encoding an altered telomere repeat binding factor 2” (The Rockfeller University).
# T1: TRF1 full length (Homo sapiens, UniProt P54274 SEQ:1-439)
# T1 chain: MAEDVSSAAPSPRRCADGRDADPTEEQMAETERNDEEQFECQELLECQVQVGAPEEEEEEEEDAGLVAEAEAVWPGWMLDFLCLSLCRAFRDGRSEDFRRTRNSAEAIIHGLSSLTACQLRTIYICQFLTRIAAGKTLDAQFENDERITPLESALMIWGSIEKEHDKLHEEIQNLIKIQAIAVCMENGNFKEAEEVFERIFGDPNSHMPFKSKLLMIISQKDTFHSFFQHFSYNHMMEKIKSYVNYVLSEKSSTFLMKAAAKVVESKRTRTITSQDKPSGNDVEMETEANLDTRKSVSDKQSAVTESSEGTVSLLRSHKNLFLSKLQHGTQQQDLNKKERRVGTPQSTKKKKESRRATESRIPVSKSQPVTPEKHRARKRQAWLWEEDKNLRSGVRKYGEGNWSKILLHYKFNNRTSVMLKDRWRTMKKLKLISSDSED
# T2: TRF1 purified from HeLa (Homo sapiens, UniProt P54274 SEQ:1-439)
# T2 chain: T1 chain
# T3: TRF1 delta263-376 (Homo sapiens, internal deletion 263-376)
# T3 chain: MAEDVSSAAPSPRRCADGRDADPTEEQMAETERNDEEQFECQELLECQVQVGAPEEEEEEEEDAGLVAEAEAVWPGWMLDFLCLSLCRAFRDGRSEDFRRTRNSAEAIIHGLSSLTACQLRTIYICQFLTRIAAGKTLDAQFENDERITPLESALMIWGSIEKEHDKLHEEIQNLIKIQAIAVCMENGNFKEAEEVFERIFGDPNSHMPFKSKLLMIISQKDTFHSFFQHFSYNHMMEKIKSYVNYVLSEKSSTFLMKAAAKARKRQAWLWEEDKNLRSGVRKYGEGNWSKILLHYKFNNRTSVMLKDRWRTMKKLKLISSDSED
# T4: TRF1 derivative II (Homo sapiens, UniProt P54274 SEQ:1-439)
# T4 chain: T1 chain
# T5: GFP-TRF1 (Homo sapiens, UniProt P54274 SEQ:1-439)
# T5 chain: T1 chain
# B1: [TTAGGG]12 probe (142 bp pTH12 fragment) (dsDNA)
# DNA 1: TTAGGGTTAGGGTTAGGGTTAGGGTTAGGGTTAGGGTTAGGGTTAGGGTTAGGGTTAGGGTTAGGGTTAGGG
# DNA 2: CCCTAACCCTAACCCTAACCCTAACCCTAACCCTAACCCTAACCCTAACCCTAACCCTAACCCTAACCCTAA
# B2: [TTAGGG]6 permuted probes (dsDNA)
# DNA 1: TTAGGGTTAGGGTTAGGGTTAGGGTTAGGGTTAGGG
# DNA 2: CCCTAACCCTAACCCTAACCCTAACCCTAACCCTAA
# Legend:
# [1] = biological target: TRF1 deltaN-376 (Homo sapiens, UniProt P54274 SEQ:1-439, deletion of N-terminus to 376); experiment: EMSA; Myb domain without dimerization domain; conditions: label: 32P
# Source text: (§1) Coupled in vitro transcription/translation: TRF1 deletion mutants used for the in vitro coupled transcription/translation experiments were cloned in the vector pET28(a) (Promega) in the NcoI and EcoRI sites using PCR-generated fragments. The GFP-TRF1 fusion product was cloned in pBluescriptKS+. PCR-directed mutagenesis was used to eliminate from this construct the start codon of the TRF1 gene by mutating it from ATG to ATT in order to suppress the occurrence of internal translation at this position. The GFP sequence was obtained from pS65T-C I (Clontech). Expression of TRF1 derivatives was achieved by using a rabbit reticulocyte lysate system (Promega) using reaction conditions essentially as described by the supplier. Briefly, between 0.2 to 1 µg of total plasmid DNA was used per 20 µl reaction containing T7 RNA polymerase in the presence of ^35S-methionine (to visualize products on SDS-PAGE) or without labeled amino acids (for gel-shift assays). After the transcription/translation reaction samples were diluted 1:5 with the addition of 80 µl of buffer D [Chong et al., 1995, supra]. Of this mixture, 0.5–5 µl was used in gel-shift reactions.
# (§2) Gel-shift assays: Gel-shift assays were performed as described previously [Zhong et al., 1992, supra] using labeled restriction fragments as probes. […]
# [2] = biological target: TRF1 deltaN-46 (Homo sapiens, UniProt P54274 SEQ:1-439, deletion of first 46 aa); experiment: EMSA; activity unaffected; conditions: label: 32P
# Source text: as §1, §2
# [3] = biological target: TRF1 deltaN-28 (Homo sapiens, UniProt P54274 SEQ:1-439, deletion of first 28 aa); experiment: EMSA; activity unaffected; conditions: label: 32P
# Source text: as §1, §2
# [4] = biological target: TRF1 deltaN-196 (Homo sapiens, UniProt P54274 SEQ:1-439, deletion of N-terminus to 196); experiment: EMSA; lacks dimerization domain; conditions: label: 32P
# Source text: as §1, §2
# [5] = biological target: T1, TRF1 full length; experiment: EMSA; conditions: label: 32P
# Source text: as §1, §2
# [6] = biological target: T2, TRF1 purified from HeLa; experiment: EMSA; bend 57 and 59 degrees; competed by TTAGGG plasmid; conditions: chain copies: 2 stated; label: 32P
# Procedure: (§3) DNA bending assay: PCR primers were used to generate DNA fragments with the composition indicated in FIG. 9 using pTH3, pTH6, and pTH12 [Zhong et al., 1992, supra] as templates, which contain 3, 6, and 12 tandem TTAGGG repeats, respectively. The products were end-labelled with ^32P-γ-ATP and polynucleotide kinase and the labelled fragments were isolated by preparative acrylamide gel-electrophoresis. Gel-shift reactions with partially purified HeLa TRF1 were performed as described above and the migration of the complexes was analyzed as described by Ferrari et al. [Ferrari et al., 1992, supra], and Thompson and Landy [*Nucl. Acids Res.*, 16:9687–9705 (1988)].
# (§4) Labeled DNA probes were incubated with purified HeLa TRF1 under conditions in which one TRF1 dimer binds per probe molecule [Zhong et al., 1992, supra] and the mobility of the resulting complexes was analyzed on native polyacrylamide gels. The permuted sets of fragments had the same electrophoretic mobility as expected from their equal lengths. […] As shown in FIG. 9B for the 6mer and 12mer probes, an effect of the position of the hTRF1 binding site within the probes was observed. Slower migrating complexes were obtained when the binding site for hTRF1 was located more centrally in the DNA molecule, consistent with the induction of DNA bending upon hTRF1 binding.
# [7] = biological target: T3, TRF1 delta263-376; experiment: EMSA; dimerization domain fused to Myb; conditions: label: 32P
# Source text: as §1, §2
# [8] = biological target: T4, TRF1 derivative II; experiment: EMSA; binds as homodimer; conditions: tags: N-terminal 43 aa polylinker-encoded addition; chain copies: 2 stated; label: 32P
# Source text: as §1, §2
# [9] = biological target: T5, GFP-TRF1; experiment: EMSA; binds as homodimer; conditions: tags: N-terminal GFP; TRF1 start codon ATG to ATT; chain copies: 2 stated; label: 32P
# Source text: as §1, §2
# [10] = biological target: T2, TRF1 purified from HeLa; experiment: EMSA; bend 64-66 degrees; competed by TTAGGG plasmid; conditions: chain copies: 2 stated; label: 32P
# Procedure: as §3, §4
Binder,binding result [1],binding result [2],binding result [3],binding result [4],binding result [5],binding result [6],binding result [7],binding result [8],binding result [9],binding result [10]
B1,no binding,binds,binds,no binding,binds,binds,no binding,binds,binds,–
B2,–,–,–,–,–,–,–,–,–,binds
